Patent US20110239317A1 (Johns Hopkins, published 2011)

T1: mature C-terminal myostatin peptide (disulfide-linked C-terminal dimer), purified from CHO cell conditioned … (UniProt O14793 24-375, limits assumed, radio-iodinated (on tyrosine, residues not stated) in the receptor binding assay)
T1 construct: mature; also called GDF-8; mature C-terminal peptide
T1 sequence (looked up): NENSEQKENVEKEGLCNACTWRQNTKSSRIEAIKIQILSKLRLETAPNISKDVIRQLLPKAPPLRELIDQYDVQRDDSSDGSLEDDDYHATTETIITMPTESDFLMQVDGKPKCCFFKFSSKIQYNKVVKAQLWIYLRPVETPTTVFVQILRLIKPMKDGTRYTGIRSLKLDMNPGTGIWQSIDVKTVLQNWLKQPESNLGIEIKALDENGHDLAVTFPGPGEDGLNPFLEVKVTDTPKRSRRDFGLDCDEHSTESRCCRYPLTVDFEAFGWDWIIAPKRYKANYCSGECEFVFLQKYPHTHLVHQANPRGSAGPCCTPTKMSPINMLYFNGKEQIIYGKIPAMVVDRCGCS


Legend:
[1] = molecular target: GDF-8 receptor (cell surface binding proteins on L6 and G-8 myoblasts); assay: receptor-ligand binding assay with I-125 GDF-8 on myoblasts
[2] = molecular target: GDF-8 receptor (cell surface binding proteins on L6 and G-8 myoblasts); assay: receptor-ligand binding assay with I-125 GDF-8 on L6 myoblasts
[3] = molecular target: T1, mature C-terminal myostatin peptide …; assay: radio-iodinated myostatin on COS cells transfected with Act RIIB, Scatchard analysis

Kd [1] [nM]	receptors/cell (receptors/cell) [2]	Kd [3] [nM]	Molecule
0.37	5000	–	recombinant human GDF-8 (rhGDF-8) homodimer (from UniProt O14793 267-374) (ligand)
–	–	~5	activin type IIB receptor (Act RIIB) expressed on transfected COS cells (receptor) SGRGEAETRECIYYNANWELERTNQSGLERCEGEQDKRLHCYASWRNSSGTIELVKKGCWLDDFNCYDRQECVATEENPQVYFCCCEGNFCNERFTHLPEAGGPEVTYEPPPTAPTLLTVLAYSLLPIGGLSLIVLLAFWMYRHRKPPYGHVDIHEDPGPPPPSPLVGLKPLQLLEIKARGRFGCVWKAQLMNDFVAVKIFPLQDKQSWQSEREIFSTPGMKHENLLQFIAAEKRGSNLEVELWLITAFHDKGSLTDYLKGNIITWNELCHVAETMSRGLSYLHEDVPWCRGEGHKPSIAHRDFKSKNVLLKSDLTAVLADFGLAVRFEPGKPPGDTHGQVGTRRYMAPEVLEGAINFQRDAFLRIDMYAMGLVLWELVSRCKAADGPVDEYMLPFEEEIGQHPSLEELQEVVVHKKMRPTIKDHWLKHPGLAQLCVTIEECWDHDAEARLSAGCVEERVSLIRRSVNGTTSDCLVSLVTSVTNVDLPPKESSI
